Assay results: patent publication US20100330090A1
Where a chain is given by its changes, count along the chain named.

B1: LDS896 (Fab, V domains shown)
VH: EVQLVQSGAEVKKPGSSVKVSCKVSGGTFSNYVFNWVRQAPGQGLEWMGVINPHSGRTRYNQKFKGRVTMTTDTSTSTAYMELRSLTSDDTAVYYCARDDGPSHWYFDVWGQGTTVTVSS
VL: DIVMTQSPLSLPVTPGEPASISCRSSQSLLHRNGNNYLEWYLQKPGQSPRLLIYKISNRFSGVPDRFSGSGAGTDFTLKISRVEAEDVGVYYCFQGSHVPFTFGQGTKLEIK
modifications: Fab constant regions not given
B2: LDW653 (Fab, V domains shown)
VH: QVQLVQSGAEVKKPGASVKVSCKASGYTFNSYYMNWVRQAPGQGLEWMGVIDPHGGRTRYNQKFKGRVTMTTDTSTSTVYMELSSLRSEDTAVYYCARDDGPSMWYFDVWGQGTTVTVSS
VL: B1 VL with H98S
modifications: Fab constant regions not given
B3: LDS900 (Fab, V domains shown)
VH: B2 VH with V79A, S84R, R87T, E89D, M104L
VL: B1 VL
modifications: Fab constant regions not given

Key:
[1] = target: recombinant human Par-1 antigen (protease activated receptor-1) (human) (UniProt P25116); test: BLI (ForteBio Octet), Experiment 1, Fab at 1E-8 M
[2] = target: recombinant human Par-1 antigen (protease activated receptor-1) (human) (UniProt P25116); test: BLI (ForteBio Octet), Experiment 2, Fab at 2.5E-8 M

| Binder | Kd [1] [nM] | koff [1] [s⁻¹] | kon [1] [M⁻¹ s⁻¹] | Kd [2] [nM] | koff [2] [s⁻¹] | kon [2] [M⁻¹ s⁻¹] |
| --- | --- | --- | --- | --- | --- | --- |
| B1 | 1.18 | 0.000311 | 265000 |  |  |  |
| B2 |  |  |  | 1.13 | 0.000293 | 259000 |
| B3 |  |  |  | 1.47 | 0.000289 | 196000 |
